Results as given in the domain aggregation screens of Martell et al. (2025).

Experiment: soluble fraction after stress (log2 fold change); higher = more stays soluble; pooled small domains, quantitative proteomics
Settings: stress: 50 degC
Procedure, shortened: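 Each library was heated to 50°C as a stress step. The libraries, made up of small protein domains, were pooled and analysed at high throughput by quantitative proteomics. The reported value is the base-two logarithm of the fold change in each protein's soluble amount after stress, taken as a measure of aggregation propensity. The higher the value, the more protein stays in solution.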

Sequence	soluble fraction (log2)
HMETKVIVPKVTGMNSKSAINYLSARGLKYKAVPADSGKSFHVVDQYPKSGTKVSPHSTVYLYS	0.077
HMHGEAEFLDATAVVMEKLNPGGLVKIKGEIWQAVSKDGHTIQEGEKVRVFERQGITLLVGHF	-0.171
HMSDDVELLGRLSDREVSVLQYLSQGYSNKQISEQMFISNKTVSTYKARLLLKLNAGSLVDLIEFAKRNTL	-1.4
HMVQMNMLELQEEMQRDRSWIIKHLFQDEYFRRKIAKFSQFPINDSGKYLFHRKSMLKFLNDYAEEIVER	-2.56
HMAQVDAVQQVLQAFPALRSGQSQHLSQVVAALRQRGILTVGTKTTAWFAQWASVFQLLPLQVPNRIRYQS	-0.066
HMLHVRSALMSELDGIEGIGEKRKRLLFDAFITRDAIAAATLEQLMAVKGMNRPSAEAVHKHFHG	-0.53
HMAQLKYEQIKSYLQAEAVKPESATRMPTVRELMRRFNVSLVTVNRALSELEHAKVIVRRQGAGIVAAQ	-0.703
HMLYEDVQVPNVRYWKSRDAKKQLEDLGLRVLTEHVNDAYIQSDQVIRTSPEIGDTLRTGDTVTLYVSDG	0.185
HMQELNDQQRLAILNEWNNRATNPPSLLELVRVAFPDAEGADGRSWHGKKVKEFLSTRQIKARAS	0.119
HMSSWMTKDGKIKPISKWAGVPMTSQQQADYAAGKVVELTNIPDKQGQLNTVYLKFNPEKQRPTTSLNDPR	0.134
HMNGLDSVLRNWARQTLASGGENLLGDLTDHVTRLIISEALIMTGGNRTRAAELLGLSRPTLLAKMDKLNL	-1.45
HMKITININIETLSHHIKQSGVPLGRLQESVPDYNEIVTGNKSPTYQQLEKISKLIRVPLGLLVIESPL	0.268
HMEFEIGQEDSKKSVKQFLYNTLRLSHGQVTALKRQERGILLNGERVFVTALLQEGDRLSLLLE	-0.342
HMIPNPMTDRELEVLGLLASGKTYKQVARALDLSQSTVRNHLHNVYHKLNVVDRAQAVIVSRENGW	-0.289
HMKDITPASEDQLKAITDLMLKVNGEWSDAFFTFISKKFNHQISSPEQLTTFEANTIIDMLRKKAEG	0.192
HMVDDELTARRRVNLRRIADELGGAAAVARKTQKSVQQISSMLNGTKSFGSKIARDIEPKLGLPLQSLDKE	0.128
HMGSLPPPKDGTTIYVVKPGDSLWRISGKFFGNPLFWPRLWEINPNIDNPNKIYPGDVISLKP	0.00421
HMDSVFGVVTSSDGVKLRKEASTISKVLTVLPYGTEVDVDRIGSEWIRIVTDGGQKGYVSADYLAVREGER	0.206
HMSRARSRQTSMLEAVAGLGPARRRALLKQFGGLQGVLRAGIEDLSRAPGIGPALAQAIFEHLHPGA	-0.466
HMVAMGQRVVPLTHLSIDDVRRLLESTYGKDSGIEVTKPGTAAKGVIVTAPRTELDGIVALVKQA	0.0987
HMVINTRHTGFVVDDLERFINFYLGLGLKLISRKVESGEYIDKLVGLKGTKLEWAKLSLPDNSMIEILKYH	-0.375
HMTSLGLEGLVNTTAIATSDLRPSGWALAGERKIFVVSEGEFIDNGDKIRILTVDGNRIVVRKETNK	-0.051
HMSLREKNKARTRTAILNAARDLAKQGQWDAITTRQIADAAGVSYQTLYNYYPSKASILVEMLL	-1.45
HMGLDNEGFERLRQKITRLLSEEALPVKELVDSFASKMRQEVLETLAFLQQEGVIEEKNGKLFLK	0.0365
HMKMLSIQRREAIRALLLEKESITIAEVMEKFQISVETARRDFDALADEGFLNKVYGGATLKK	-1.37
HMETIHEMVNRLSSEGFIKNEDGIWYLRDRRGDGTKWLKNPFFESTGEKDAFALIDHLKVNDELLSKLRK	-0.3
HMPSDTNLIGKTGIAYTTLRPGGTALIDDRKVDVVADSEYIEKDKKIKVIRVEGIKVVVTAVK	0.091
HMNDADAHASVDAALKHLEALAETTPEVRAALELVRRGPDGRVTVDSFARVAEALREISIAVGAS	0.107
HMVNTYILNNKEYPIEIIRKNNKNTYLRVKEGKIIVTTNYLTSSFTINKLIKDNTSFINKALLKEN	-0.595
HMEKVLPFEFERKFKTNHTAWDFFSNQAPPSYRKTVIHWILSAKQEITRISRLEKLIAASEQQKRI	-0.319
